Data on two sequences can be found in article PMC1635313.

The data set concerns the target T1, CRP (cAMP receptor protein, CAP) (Escherichia coli) (UniProt P0ACJ8).
T1 sequence: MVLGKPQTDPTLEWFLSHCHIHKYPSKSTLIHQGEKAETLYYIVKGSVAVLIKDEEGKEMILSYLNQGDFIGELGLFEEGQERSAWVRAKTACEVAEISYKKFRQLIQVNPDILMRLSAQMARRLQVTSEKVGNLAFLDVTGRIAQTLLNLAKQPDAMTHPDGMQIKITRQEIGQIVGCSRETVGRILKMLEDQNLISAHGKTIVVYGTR
The data set can be described thus: EMSA. (In general: In EMSA bound probe runs differently from free probe, usually more slowly.)

Consider “GCACGACAGGTTTCCCGACTGGAAAGCGGGCAGTGAGCGCAACGCAATTAATGTGAGTTAGCTCACTCATTAGGCACCCCAGGCTTTACACTTTATGCTTCCGGCTCGTATGTTGTGTGGAATTGTG (double strand) [lacZ promoter fragment]”, for which the binding entry is listed as “binds”. With “CCAGGTTTCCCAGCACTTTTAATCTGGCGGTTAATGCGACTCCGGCATCCGGTGAAACATCCGGTAAAGGATGCAATACGCCGTCGATACGCAAGCGGATGCGGTAGGC (double strand) [hofB coding fragment]” the entry was “no binding”.
